The source of these data is patent publication US20050053993A1, “Uses of an endothelial cell receptor” (priority 2002, published 2005).

Experiment [1] concerns endothelial cell migration. As to the kind of experiment: Endothelial cell migration induced by various angiogenesis inducers (FIG. 9A). It counts as cell-based, human. The conditions noted are these: aFGF, bFGF, IL-8, PDGF, TGF-β and VEGF; rK5 400 pM (100 pM for VEGF, PDGF). The protocol: FIG. 9A is a graph showing inhibition by rK5 of endothelial cell migration induced by a variety of angiogenesis inducers including aFGF, bFGF, IL-8, PDGF, TGF-β, VEGF, HGF and […] at concentrations of 50 ng/mL, 15 ng/mL, 40 ng/mL, 1 pg/mL, 100 pg/mL 40 ng/mL and 250 ng/mL respectively. The concentration of rK5 used was 400 pM except for VEGF (rK5=100 pM), PDGF (rK5=100 pM) and HGF (rK5=10 pM). Membranes were covered, fixed and stained and the number of cells that had migrated to the upper chamber per 10 high power field counted. Background migration to DME+0.1% BSA was subtracted and the data reported as the number of cells migrated per 10 high power fields (100×). […]
Endothelial cell migration assays: The effect of rK5 on endothelial cell migration was determined by two different methods. […] After 4 h, migrated cells were measured by fluorescence (Frevert C W, Wong V A, Goodman R B, Goodwin R, Martin T R. Rapid fluorescence-based measurement of neutrophil migration in vitro. J Immunol Methods. 1998 Apr. 1;213(1):41-52). […] Growth factors were used, where indicated, at concentrations determined in preliminary experiments to give equivalent migration responses of about 100 cells migrated/high powered field (400×). […] Membranes were recovered, fixed and stained and the number of cells that had migrated to the upper chamber per 10 high power fields counted. […]

In the next experiment the test system is D54. As to the kind of experiment: Tumor cell proliferation, D54. In kind it is cell-based, human. The conditions noted are these: D54, 72 hours. The method, then:
(§1) Cell Proliferation Assay. The effect of rK5 and rK5 peptides on endothelial cells were assessed using a proliferation assay with 1% BSA and 3 ng/ml bFGF in serum-free media. Relative cell numbers in each well of a 96 well microplate after incubation for 72 hours in the absence or presence of inhibitors were determined by using the AQueous cell proliferation assay (Promega, San Luis Obispo, Calif.). For all other cell lines tested for proliferation, minimal growth media was used (Cao, Y., Ji, R., Davidson, D., Schaller, J., Marti, D., Sohndel, S., McCance, S., O'Reilly, M., Llinas, M., and Folkman, J. Kringle domains of human angiostatin. Characterization of the anti-proliferative activity on endothelial cells. (1996) J. Biol. Chem. 271, 29461-29467). Results are presented as the percent inhibition of control cell (bFGF-induced) proliferation.

In a further experiment the test system is P388. Put plainly: Tumor cell proliferation, P388. It counts as cell-based. The conditions noted are these: P388, 72 hours. The protocol:
as §1

B1: rK5: recombinant kringle 5 fragment of human plasminogen (residues 450-543), expressed in E. coli or yeast (protein)
chain: LLPDVETPSEEDCMFGNGKGYRGKRATTVTGTPCQDWAAQEPHRHSIFTPETNPRAGLEKNYCRNPDGDVGGPWCYTTNPRKLYDYCDVPQCAA
Turning to B1, the “inhibition of endothelial cell migration induced by inducers of angiogenesis” value in experiment [1] was “inhibited”. In addition, the “IC50 values for cell proliferation” value in the experiment on D54 and with P388 was above 100 µg/mL in each case.
